Laboratory results published in US20040014638A1 (RIGEL PHARMACEUTICALS, published 2004).
Ends that are not written are not given here.

T1: human CLLD8 protein (human, UniProt Q96T68 1-719, limits assumed)
T1 sequence: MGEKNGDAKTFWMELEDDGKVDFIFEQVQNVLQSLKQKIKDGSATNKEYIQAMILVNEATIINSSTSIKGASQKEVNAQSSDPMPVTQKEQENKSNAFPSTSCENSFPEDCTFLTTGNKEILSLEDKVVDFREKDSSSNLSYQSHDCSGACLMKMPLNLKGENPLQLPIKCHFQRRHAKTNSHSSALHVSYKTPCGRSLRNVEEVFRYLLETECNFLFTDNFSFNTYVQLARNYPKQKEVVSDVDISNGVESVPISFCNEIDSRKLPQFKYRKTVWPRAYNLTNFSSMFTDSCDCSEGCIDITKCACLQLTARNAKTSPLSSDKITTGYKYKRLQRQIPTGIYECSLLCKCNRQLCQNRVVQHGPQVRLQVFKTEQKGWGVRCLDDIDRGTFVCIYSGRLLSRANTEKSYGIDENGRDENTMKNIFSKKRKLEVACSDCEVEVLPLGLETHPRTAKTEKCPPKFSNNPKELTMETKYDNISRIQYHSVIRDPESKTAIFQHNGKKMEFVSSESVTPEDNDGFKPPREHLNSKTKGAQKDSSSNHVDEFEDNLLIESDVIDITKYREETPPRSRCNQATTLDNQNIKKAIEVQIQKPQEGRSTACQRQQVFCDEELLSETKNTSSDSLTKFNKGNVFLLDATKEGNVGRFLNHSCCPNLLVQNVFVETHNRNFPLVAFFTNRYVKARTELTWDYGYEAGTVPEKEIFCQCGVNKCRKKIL


Assays:
human CLLD8 protein [1] = target: T1, human CLLD8 protein; test: cell-based or functional assay
human CLLD8 protein [2] = target: T1, human CLLD8 protein; test: cell-based or functional assay; remark: listed apart in the source

Binder | reporter ratio (GFP under germline ε promoter, A5T4 reporter line) (human CLLD8 protein [1]) | endogenous ε inhibition ratio (TAQMAN quantitative PCR of ε transcription product, +IL-4/+Dox to +IL-4/-Dox) (human CLLD8 protein [2]) | reporter ratio (original clone screen, +IL-4/+Dox over +IL-4/-Dox GFP fluorescence) (human CLLD8 protein [2])
AMHGHHGWPWGMEQGCTPLG (also: expressed as BFP-peptide fusion via alpha-helical linker, bait in pGBKT7) [peptide CL02A3 wt] | 1.62 | 2.82 | 1.55
RAHGHHGWPWGMEQGCTPLG [peptide CL02A3AM] | 1.03 |  | 

The next lines start with the values.

reporter ratio (GFP under germline ε promoter, A5T4 reporter line) (human CLLD8 protein [1]) | endogenous ε inhibition ratio (TAQMAN quantitative PCR of ε transcription product, +IL-4/+Dox to +IL-4/-Dox) (human CLLD8 protein [2]) | reporter ratio (original clone screen, +IL-4/+Dox over +IL-4/-Dox GFP fluorescence) (human CLLD8 protein [2]) | Binder
1.16 |  |  | AMHGHHAAPWGMEQGCTPLG [peptide CL02A3GW]
1.99 |  |  | AMHGHHGWPWGMEQGCTPAA [peptide CL02A3LG]
